Reference: publication PMC4427845, “Redesigning Protein Cavities as a Strategy for Increasing Affinity in Protein-Protein Interaction: Interferon-γ Receptor 1 as a Model” (BioMed Research International, 2015)
Positions count from the first letter of the chain named.

How the values were obtained:
Assay in all cases: SPR; His-tagged receptor variants immobilised on a Ni2+-activated HTG sensor chip (ProteOn); IFNγSC 0.1-9 nM flowed over, 90 s association, 10 min dissociation, 100 μL/min; PBST (PBS pH 7.4, 0.005% Tween 20); doubly referenced (interspots and His-tagged FrpD channel); 1:1 Langmuir with drift model
Details in all cases: both partners purified
[1] = target: T1, IFNγR1 N96W + V35L variant (residues 18-245) (human, UniProt P15260 18-245, V35L | N96W)
T1 construct: interferon-γ receptor 1 (IFNγR1), human, extracellular domain, residues 18-245 of UniProt P15260; not shown: His tag, C-terminal, kept
T1 sequence (looked up): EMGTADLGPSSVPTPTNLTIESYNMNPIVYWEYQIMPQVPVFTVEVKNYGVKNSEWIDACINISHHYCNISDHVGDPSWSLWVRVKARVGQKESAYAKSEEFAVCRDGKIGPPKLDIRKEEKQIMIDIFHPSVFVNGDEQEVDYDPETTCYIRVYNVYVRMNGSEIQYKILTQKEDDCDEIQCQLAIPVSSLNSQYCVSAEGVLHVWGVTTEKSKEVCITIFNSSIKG

[2] = target: T2, IFNγR1 N96W + G225Y double mutant (residues 18-245) (human, UniProt P15260 18-245, N96W | G225Y)
T2 construct: interferon-γ receptor 1 (IFNγR1), human, extracellular domain, residues 18-245 of UniProt P15260; not shown: His tag, C-terminal, kept
T2 sequence (looked up): T1 sequence (looked up) with L18V, G208Y

[3] = target: T3, IFNγR1 G225Y variant (residues 18-245) (human, UniProt P15260 18-245, G225Y)
T3 construct: interferon-γ receptor 1 (IFNγR1), human, extracellular domain, residues 18-245 of UniProt P15260; No primers are printed for this mutation; the methods say one protocol was followed for all proteins of the study; not shown: His tag, C-terminal, kept
T3 sequence (looked up): T1 sequence (looked up) with L18V, W79N, G208Y

B1: Recombinant interferon gamma in so-called single chain form (IFNγSC) (ligand)
chain: MQDPYVKEAENLKKYFNAGHSDVADNGTLFLGILKNWKEESDRKIMQSQIVSFYFKLFKNFKDDQSIQKSVETIKEDMNVKFFNSNKKKRDDFEKLTNYSVTDLNVQRKAIDELIQVMAEFSTEEQQEGPYVKEAENLKKYFNAGHSDVADNGTLFLGILKNWKEESDRKIMQSQIVSFYFKLFKNFKDDQSIQKSVETIKEDMNVKFFNSNKKKRDDFEKLTNYSVTDLNVQRKAIHELIQVMAELSPAAKTGKRKRSQMLFRG
Q: Which “fold of affinity against WT” value [1] does the source give for B1 here?
A: The value was 7 fold.

Q: What about the “ratio of Kd values against WT” value [2] of the same binder?
A: Its value is 3.1.

Q: And the “ratio of Kd values against WT” value [3]?
A: The value was 0.4.
